The text below walks through data of patent publication US20010021505A1.

Experiment [1] has as its target NPM/ALK fusion protein (human). The experiment in a line: co-immunoprecipitation with anti-ALK serum, immunoblot, SUP-M2 lysates.
The target in experiment [2] is 85 kDa subunit of phosphatidylinositol 3-kinase (PI3-K) (human) (UniProt P27986). The experiment in a line: co-immunoprecipitation, immunoblot, SUP-M2 lysates.
Experiment [3] has as its target phospholipase-Cγ (PLC-γ) (human) (UniProt P19174). The experiment in a line: co-immunoprecipitation, immunoblot, SUP-M2 lysates.
Chain of UniProt P19174 (P19174 2-1290): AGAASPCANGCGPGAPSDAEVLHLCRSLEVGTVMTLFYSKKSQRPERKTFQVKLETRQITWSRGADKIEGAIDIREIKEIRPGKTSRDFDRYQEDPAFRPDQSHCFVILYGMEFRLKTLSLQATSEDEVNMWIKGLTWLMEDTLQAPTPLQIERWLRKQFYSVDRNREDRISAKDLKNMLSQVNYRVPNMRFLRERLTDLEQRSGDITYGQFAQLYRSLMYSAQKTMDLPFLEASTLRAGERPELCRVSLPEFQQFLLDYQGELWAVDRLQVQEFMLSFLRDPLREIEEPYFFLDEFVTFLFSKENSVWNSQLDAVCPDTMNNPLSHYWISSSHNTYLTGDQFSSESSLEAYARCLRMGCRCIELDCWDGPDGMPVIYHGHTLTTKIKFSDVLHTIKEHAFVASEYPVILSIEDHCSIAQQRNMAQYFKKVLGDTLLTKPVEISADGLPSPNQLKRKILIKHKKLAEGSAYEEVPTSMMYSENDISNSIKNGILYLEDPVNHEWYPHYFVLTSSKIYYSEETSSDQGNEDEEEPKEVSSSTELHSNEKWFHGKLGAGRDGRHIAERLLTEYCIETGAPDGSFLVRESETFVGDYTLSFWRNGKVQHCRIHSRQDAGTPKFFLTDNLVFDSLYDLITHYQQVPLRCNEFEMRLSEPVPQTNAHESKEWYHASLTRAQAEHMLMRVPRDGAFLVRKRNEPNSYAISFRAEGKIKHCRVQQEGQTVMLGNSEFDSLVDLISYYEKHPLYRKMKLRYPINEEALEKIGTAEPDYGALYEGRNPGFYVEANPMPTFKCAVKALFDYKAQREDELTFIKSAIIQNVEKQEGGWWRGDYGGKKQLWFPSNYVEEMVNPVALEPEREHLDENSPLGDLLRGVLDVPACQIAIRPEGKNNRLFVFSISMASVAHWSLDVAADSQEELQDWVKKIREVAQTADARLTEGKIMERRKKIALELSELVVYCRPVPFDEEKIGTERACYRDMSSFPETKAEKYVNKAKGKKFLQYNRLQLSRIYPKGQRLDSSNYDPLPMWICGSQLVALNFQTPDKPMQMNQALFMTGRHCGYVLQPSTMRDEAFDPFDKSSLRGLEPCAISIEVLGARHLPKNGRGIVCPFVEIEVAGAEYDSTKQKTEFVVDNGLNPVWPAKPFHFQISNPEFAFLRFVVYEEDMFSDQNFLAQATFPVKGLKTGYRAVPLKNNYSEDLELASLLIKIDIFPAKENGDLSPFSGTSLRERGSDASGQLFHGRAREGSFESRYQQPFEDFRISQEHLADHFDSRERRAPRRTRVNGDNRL
Experiment [4] addresses T1, Src homologous and collagen (SHC) protein (human) (UniProt P29353).
T1 sequence (tyrosine-phosphorylated (sites not given), looked up): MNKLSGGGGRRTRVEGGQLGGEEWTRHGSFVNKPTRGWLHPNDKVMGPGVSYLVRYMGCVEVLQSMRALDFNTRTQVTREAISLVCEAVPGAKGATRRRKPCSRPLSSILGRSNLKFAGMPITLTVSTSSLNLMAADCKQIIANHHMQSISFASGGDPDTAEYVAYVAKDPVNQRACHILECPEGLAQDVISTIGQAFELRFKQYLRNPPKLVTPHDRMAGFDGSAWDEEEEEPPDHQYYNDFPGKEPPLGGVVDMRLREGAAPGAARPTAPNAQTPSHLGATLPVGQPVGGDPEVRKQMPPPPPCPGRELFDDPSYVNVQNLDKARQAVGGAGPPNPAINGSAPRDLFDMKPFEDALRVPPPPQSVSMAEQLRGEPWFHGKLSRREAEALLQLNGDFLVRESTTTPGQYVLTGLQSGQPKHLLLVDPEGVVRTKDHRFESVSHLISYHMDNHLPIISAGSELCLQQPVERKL
The experiment in a line: co-immunoprecipitation, immunoblot, SUP-M2 lysates.

Experiment [5] concerns the target wild-type NPM (nucleophosmin) (human) (UniProt P06748). The experiment in a line: co-immunoprecipitation, anti-NPM immunoblot.
Chain of UniProt P06748 (P06748 whole entry): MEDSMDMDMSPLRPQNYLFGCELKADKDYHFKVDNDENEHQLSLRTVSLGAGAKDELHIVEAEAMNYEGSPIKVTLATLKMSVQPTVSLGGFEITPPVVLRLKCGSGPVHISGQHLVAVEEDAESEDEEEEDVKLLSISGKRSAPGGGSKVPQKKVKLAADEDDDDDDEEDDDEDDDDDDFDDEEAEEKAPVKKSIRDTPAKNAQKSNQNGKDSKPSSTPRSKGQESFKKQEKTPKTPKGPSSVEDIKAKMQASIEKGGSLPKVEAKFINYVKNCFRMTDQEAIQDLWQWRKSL

A value given as a limit tells only on which side of the number the result lay.

Chain of UniProt P27986 (P27986 2-724): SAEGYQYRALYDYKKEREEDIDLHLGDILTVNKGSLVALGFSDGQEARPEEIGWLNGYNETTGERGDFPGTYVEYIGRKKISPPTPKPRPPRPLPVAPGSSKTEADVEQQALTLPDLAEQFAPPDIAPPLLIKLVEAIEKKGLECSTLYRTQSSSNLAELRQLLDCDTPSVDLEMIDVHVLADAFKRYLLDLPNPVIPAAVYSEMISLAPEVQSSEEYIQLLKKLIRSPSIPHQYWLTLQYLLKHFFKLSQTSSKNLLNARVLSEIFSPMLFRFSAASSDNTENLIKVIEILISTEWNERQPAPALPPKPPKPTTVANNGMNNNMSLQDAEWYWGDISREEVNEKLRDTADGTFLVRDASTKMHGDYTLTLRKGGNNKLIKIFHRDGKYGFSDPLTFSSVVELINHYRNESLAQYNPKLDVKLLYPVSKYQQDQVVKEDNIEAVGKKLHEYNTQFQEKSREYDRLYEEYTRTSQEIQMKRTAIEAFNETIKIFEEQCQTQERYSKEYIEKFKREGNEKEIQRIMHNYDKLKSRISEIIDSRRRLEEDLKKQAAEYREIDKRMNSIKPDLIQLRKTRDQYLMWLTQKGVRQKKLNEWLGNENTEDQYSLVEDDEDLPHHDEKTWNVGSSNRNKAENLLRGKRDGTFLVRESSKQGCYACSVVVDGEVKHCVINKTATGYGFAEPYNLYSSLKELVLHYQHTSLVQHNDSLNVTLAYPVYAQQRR

For “Src homologous and collagen (SHC) protein (from UniProt P29353 1-473)”, in experiment [1], the percentage of the total cellular amount of the substrate bound to NPM/ALK was 10%. Same read-out and setting: with “85 kDa subunit of phosphatidylinositol 3-kinase (PI3-K) (from UniProt P27986 2-724)” the figure was 1%; with “phospholipase-Cγ (PLC-γ) (from UniProt P19174 2-1290) (enzyme)”, 1%. With NPM/ALK fusion protein (enzyme), the percentage of the total cell pool of NPM/ALK bound to the substrate in experiment [2], in experiment [3] and in experiment [4] was below 5% in each case. Also, the stoichiometry of the association (ratio) (ratio NPM/ALK:NPM) in experiment [5] was 1.
